Data from patent US20140127211A1.

What was measured:
[1] = target: full-length human Notch3 expressed on the cell surface (human) (UniProt Q9UM47); assay: flow cytometry, negative control antibody, HCC2429 cells
[2] = target: full-length human Notch3 expressed on the cell surface (human) (UniProt Q9UM47); assay: flow cytometry, negative control antibody, MDA-MB-468/hNotch3 cells
[3] = target: full-length human Notch3 expressed on the cell surface (human) (UniProt Q9UM47); assay: flow cytometry, negative control antibody, MDA-MB-468 cells
[4] = target: full-length human Notch3 expressed on the cell surface (human) (UniProt Q9UM47); assay: flow cytometry, negative control antibody, U2OS/hNotch3 cells
[5] = target: full-length human Notch3 expressed on the cell surface (human) (UniProt Q9UM47); assay: flow cytometry, negative control antibody, OVCAR3 cells

Chain of full-length human Notch3 expressed on the cell surface (human) (Q9UM47 40-2321): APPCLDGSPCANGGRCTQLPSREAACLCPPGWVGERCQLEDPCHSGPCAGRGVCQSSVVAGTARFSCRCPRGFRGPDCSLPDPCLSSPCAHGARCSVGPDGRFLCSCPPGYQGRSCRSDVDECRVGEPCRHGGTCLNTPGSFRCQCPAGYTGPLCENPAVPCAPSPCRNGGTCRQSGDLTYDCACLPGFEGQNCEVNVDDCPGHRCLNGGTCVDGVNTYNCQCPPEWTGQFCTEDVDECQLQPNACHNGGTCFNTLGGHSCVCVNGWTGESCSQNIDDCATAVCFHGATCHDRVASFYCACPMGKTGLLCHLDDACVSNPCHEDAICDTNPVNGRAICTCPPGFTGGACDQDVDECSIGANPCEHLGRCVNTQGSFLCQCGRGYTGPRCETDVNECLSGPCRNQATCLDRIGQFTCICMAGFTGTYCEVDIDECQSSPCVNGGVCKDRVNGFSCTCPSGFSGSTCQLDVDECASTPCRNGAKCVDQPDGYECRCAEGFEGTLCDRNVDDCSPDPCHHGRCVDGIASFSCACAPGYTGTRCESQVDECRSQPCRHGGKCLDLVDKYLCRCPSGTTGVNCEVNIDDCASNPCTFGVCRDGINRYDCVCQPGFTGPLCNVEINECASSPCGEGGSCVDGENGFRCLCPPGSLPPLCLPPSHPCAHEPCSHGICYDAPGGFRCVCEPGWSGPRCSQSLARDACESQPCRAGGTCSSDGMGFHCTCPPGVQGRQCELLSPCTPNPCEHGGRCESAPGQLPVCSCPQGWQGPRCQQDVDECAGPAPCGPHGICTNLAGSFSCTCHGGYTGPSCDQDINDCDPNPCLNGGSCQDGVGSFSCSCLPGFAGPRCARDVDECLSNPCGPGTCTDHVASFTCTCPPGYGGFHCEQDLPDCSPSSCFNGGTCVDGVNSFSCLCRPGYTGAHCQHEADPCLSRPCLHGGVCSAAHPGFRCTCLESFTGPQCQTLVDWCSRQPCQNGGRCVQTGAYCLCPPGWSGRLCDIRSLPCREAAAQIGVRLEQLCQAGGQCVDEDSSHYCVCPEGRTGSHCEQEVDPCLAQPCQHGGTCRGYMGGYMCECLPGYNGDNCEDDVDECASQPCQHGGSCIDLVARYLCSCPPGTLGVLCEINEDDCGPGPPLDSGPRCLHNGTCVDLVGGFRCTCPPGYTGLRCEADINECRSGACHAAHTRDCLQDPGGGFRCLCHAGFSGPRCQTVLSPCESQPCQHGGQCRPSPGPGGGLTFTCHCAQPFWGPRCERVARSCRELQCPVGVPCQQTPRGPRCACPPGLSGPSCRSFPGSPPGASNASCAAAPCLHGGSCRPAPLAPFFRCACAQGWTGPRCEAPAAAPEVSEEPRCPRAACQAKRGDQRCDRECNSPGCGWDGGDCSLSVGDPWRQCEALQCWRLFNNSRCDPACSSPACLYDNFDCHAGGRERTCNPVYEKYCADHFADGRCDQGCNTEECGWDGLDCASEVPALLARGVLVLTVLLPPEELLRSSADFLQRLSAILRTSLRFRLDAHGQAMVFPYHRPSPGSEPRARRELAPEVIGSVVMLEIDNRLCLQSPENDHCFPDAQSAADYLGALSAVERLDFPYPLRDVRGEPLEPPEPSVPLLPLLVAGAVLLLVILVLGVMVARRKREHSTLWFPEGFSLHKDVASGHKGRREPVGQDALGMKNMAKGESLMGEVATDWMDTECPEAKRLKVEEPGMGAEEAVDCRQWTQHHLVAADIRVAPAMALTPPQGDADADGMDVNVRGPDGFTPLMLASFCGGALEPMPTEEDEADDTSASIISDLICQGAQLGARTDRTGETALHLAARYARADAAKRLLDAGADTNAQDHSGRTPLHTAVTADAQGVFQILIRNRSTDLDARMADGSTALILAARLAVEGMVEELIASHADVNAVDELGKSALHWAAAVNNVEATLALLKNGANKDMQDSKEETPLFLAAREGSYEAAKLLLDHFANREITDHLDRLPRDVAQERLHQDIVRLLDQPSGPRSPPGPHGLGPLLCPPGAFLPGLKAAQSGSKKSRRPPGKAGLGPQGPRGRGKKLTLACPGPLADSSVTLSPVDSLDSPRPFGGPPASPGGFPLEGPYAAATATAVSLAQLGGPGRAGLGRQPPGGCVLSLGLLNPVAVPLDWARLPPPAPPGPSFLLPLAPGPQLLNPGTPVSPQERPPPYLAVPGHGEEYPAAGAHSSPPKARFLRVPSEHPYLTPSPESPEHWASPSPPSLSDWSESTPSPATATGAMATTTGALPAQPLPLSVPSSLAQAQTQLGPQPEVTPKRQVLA

- MFI [1]: 3 MFI
- MFI [2]: 6 MFI
- MFI [3]: 6 MFI
- MFI [4]: 6 MFI
- MFI [5]: 5 MFI
Substance: huNeg8.8 negative control antibody
